For this experiment, the target named is T1, GST-OsPGL1^46-604 (rice (Oryza sativa), UniProt B7EDM4).
T1 chain: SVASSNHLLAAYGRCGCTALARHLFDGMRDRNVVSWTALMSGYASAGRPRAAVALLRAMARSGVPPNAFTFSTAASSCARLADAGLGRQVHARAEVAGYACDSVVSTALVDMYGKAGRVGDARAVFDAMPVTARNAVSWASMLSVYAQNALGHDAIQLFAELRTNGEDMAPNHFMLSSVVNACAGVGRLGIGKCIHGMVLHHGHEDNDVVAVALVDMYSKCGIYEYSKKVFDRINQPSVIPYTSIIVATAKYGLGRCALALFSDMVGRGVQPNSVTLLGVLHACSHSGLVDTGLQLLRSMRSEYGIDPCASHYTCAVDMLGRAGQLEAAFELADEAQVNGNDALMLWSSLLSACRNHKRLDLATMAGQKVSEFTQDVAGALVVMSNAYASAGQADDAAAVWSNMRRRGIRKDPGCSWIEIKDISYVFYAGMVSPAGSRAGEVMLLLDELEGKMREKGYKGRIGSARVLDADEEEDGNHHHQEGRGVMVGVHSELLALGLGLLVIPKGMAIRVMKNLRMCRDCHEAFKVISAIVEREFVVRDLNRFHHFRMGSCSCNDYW
Nature of the experiment: GST pull-down.

B1: Trx-OsMORF9-His (protein)
chain: MASFPTTAAAAAAQAFAFALAPKPSSSAAAPSALFPRTAAAAAFPTLAVRGSGKARQPVVAAAAGAGTGSEQRETILLPGCDYNHWLIVMEFPKDPAPTREQMIDTYLNTLATVLGSMEEAKKNMYAFSTTTYTGFQCTVDEETSEKFKGLPGVLWVLPDSYIDVKNKDYGGDKYINGEIIPCTYPTYQPKERRTSKYESRRYERRRDGPPASRRPRPQTAQPESASSS
For B1, the binding result was “binds”.

B2: Trx-OsMORF8-His (protein)
chain: MASASRFLLLSRLPAAAASSTSRLLRPLSAAGSLLPAALAPSAPRAAAAAARCFATQPATSSLRDSSPNWSNRPPKETILLDGCDFEHWLVVVEPPPGDPSNPEPTRDEIIDGYIKTLAQVVGSEEEARHKIYSVSTRHYFAFGALVSEELSYKLKELPKVRWVLPDSYLDVRNKDYGGEPFINGEAVPYDPKYHEEWVRNNARANERSRRNDRPRNFDRSRNFERRRENMQNFQNRDVPPGQGFNSPPPPGQGPVPPRDAPPMHHAQGNVPPPPPPNAGPPNYQPHAPNPQGYTNYQQGGAPGYQGGPPGYQGSNQGYQGPPPPPPSAYQGNNPGYQGGGPGYQGGNPPPYQGGNPGYAPGYHGQGGNPSYQQGGDNYNAGVPAYERDGQGRNYQ
Turning to B2, the binding result is on record as “binds”.
